From the supplement of paper PMC9170038

The sequences below were run on K4 kissing-loop RNA reporter (assay: apparent KD of K4 kissing-loop reporter; higher = weaker reporter binding). Settings: Eterna round: R107; input ligand: arginine 13.2 mM.
Method: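 RNA-MaP round R107: designed RNA switches with theophylline, tryptophan, arginine or FMN aptamers are transcribed on-chip within common flanks. They are titrated with a labelled K4 kissing-loop RNA reporter in RNA-MaP buffer (100 mM Tris pH 7.5, 80 mM KCl, 4 mM MgCl2), without ligand or with the indicated ligand. Median apparent KD per design.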
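Note: bound reporter read as fluorescence of individual clusters on recovered sequencing chips by microscopy, with normalized cluster intensities fitted with a binding model.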

| Sequence | apparent KD of K4 kissing-loop reporter [nM] |
| --- | --- |
| AUCGUUGCCAUUAGGACAUACGGUCCUGAACGAGGACCGGUACGGCCGCCACUCGAGCACACGAGUGAUGUUCGUGGGCAACGAU [Tryp A SS t1] | 107 |
| AUACGUUUAAGUGAUACCAGACAUGUGAGUGAUGUUUACAUAUAUAUUUAAUAUUUAGCUGUCCCUUGGCAGCACAGUUUAUUUA [JR_ExcTheophyB_Sub001] | 374 |
| UUUAUGAUGUCGGCCGCCACUGGAUUAAUAUGUGUGUAAUCUAGUUCUGAGUGAUGUUUAGAGUCCAGGACCGGGACAUUAGUUA [#12 K4 Tryptophan B Exclusion] | 476 |
| GGAUAUGUAACAGAUACCAGCCGACGACAGUCACUGUGUCAUGUAGUGAUGUUACAAUCUGGCCCUUGGCAGCUGUCUCUGGUUU [theeternabot_exclusion_KL_Theo_B_27] | 214 |
| UGGACCUGACUCGAUAAGAGUCAAUGAGAUACCAGUGACGAAAGUCACCCUUGGCAGCUCAACUGCCAGUGAUGUUGGUGGUCCU [#SwitchBubble 2 #StaticStem] | 389 |
| GAGCCAACCGUCGAUACCAGCCGCACGUCAUUCACUCAAUGCUGAGGAGCCAGUGAUGUUGGCCCUUGGCAGCGAAGCAACGAUC [theeternabot_exclusion_KL_Theo_B_43] | 91.8 |
| AUGUAUGAAUUAGGAUAUCGUGAUCCAUGCAUAUAUAUGAUAAAUGGAUAUGUCGUAGUGAUGUUACGAGAAGGAGUGUGGAGUA [KL-XFMN-B1] | 71.5 |
| UGACUACAAAAGGAAUAAUCCUAGUGAUGUUAGGAUAUGCUGAUAAGCAGAAGGAACGGAGAUCGAAAGAUCUCAUAUGUAGUCU [whbob_Ex_FMNA__2th192] | 87.4 |
| GGGAUGUAGGGAAGGAGCGCUUUGCGAAUAUUAAUGAGUGAUGUUCGUAGAUAUUUGUAAUGGCAGGUAGGUCGCCCUAUAUCCC [Skye_SS_AB] | 131 |
| GCCGUAGAUUGAAGGAGCGUGGACCUAUCGCUUGAACAGUGAUGUUGUUUAUCUAGGAAGCCGCAGGUAGGUCGCAAUCUACGGC | 292 |
| AUAUCUGUUCGAAAGAACGGAUCUUCGGAAGGAGCGCGUGAAAACGCAGGUAGGUCGCCGAAGUUAUUAGGUAGUGAUGUUACCU [Arginine A K4 7] | 96.4 |
| UGACUUGCCUGAGGAUAUCUAGGAUAUCCAUAAAAGGAAAUAAUAGUUCAGUGAUGUUGGAGAAGGAGAGAAGGCAGGUAAGUCU [KL-XFMN-B18 #DoubleAptamer #SwitchBubble] | 514 |
| UUGACCAAAUUCCGGUGAUCAUCGCCGCCGCGAGGACCGGUACGGCCGCCACUCGUCCCUAUGCUCGGAGUAGUGAUGUUAUUCA [theeternabot_sameState_KL_Trp_A_43] | 197 |
| CAACAUCACAACUUCUUCGUCCUAGAAGACUAGGAUAUCAGGAAACUGAGAAGGAGUCUCUGCAGUGAUGUUGCAGCUAGGACGA [[K]'-[F2]'-[F1]'-[F1]-[F2]-[K1]-[K2]-[F]''_Design2b] | 216 |
| UGUAUGUGAUUUGAUACCAGACCAGCUGGUGGUAUCUGAGUGAUGUUCAGGUAGGUUUGGGUCCCUUGGCAGCAAAUCGCAUACU [KL-SSTheoB26] | 118 |
| CACCAUGAAUUCUCUAGGAGUGAUGUUUUUCGAGGACCGGUACGGCCGCCACUCGGACGAGGACCGUGGGAGCGGCGAAGCGACU [wwegmullin] | 148 |
| UCACGUGCCAGUGAUGUUGGCGUACGUGAUACCAGACGAAUAAAAGUCCCUUGGCAGCACAAAUAUGCCAAGUUAGAUGUAUGAU [Exclusion Theophylline A GF 2] | 122 |
| GCCAGAGCGCGAAGGAGCGCCGUGACAGGUUACUGCCUUGGGCAGUGAUGUUGCUCAAUCUGGCAGGUAGGUCGCGUGCUCUGGC | 185 |
| CACCAUGAAUUCUCUAGGAGUGAUGUUUUUCGAGGACCGGUACGGCCGCCACUCGGACGAGGAACGUGGGAGCGGCGAAAAGACU [xzzmullin] | 64 |
| GUGCGGCUAGUGAUGUUGGUUGCGUGGGAAGGAGCGCAGAAACAUGCAGGUAGGUCGCCCACACCUCUGAAAGAAGGUUAAUUCA [Biistian] | 140 |
| CGCCACGACUGAAGGAGCGCGCCAGUGAUGUUGGACGGCUUUGUCAAGGAAACUGCACCGGUGCAGGUAGGUCGCAGUUCGUGGU [Quisbiri] | 421 |
| GCGAAGAAGGUUGAUACCAGUCUUGCGUGUCAAGCGCCAGUGAUGUUGGGCCUGUAGAUCGACCCUUGGCAGCAACCUCGAAAUG [theeternabot_sameState_KL_Theo_B_28] | 563 |
| UAAUUUAUUUCUUUUAUAUAAUAAUCAGAUACCAGUGAUUAAUGUCACCCUUGGCAGCUGUAUAGAGUGAUGUUCUAAUGCUUAA [JR_SSTheophyA_Sub022] | 169 |
| GUUACGCAUGGAAGGAGCGCAGGCUCAACAAGUAGCUCAGUGAUGUUGAGCAUAUUAAUUCUGCAGGUAGGUCGCCAUGUGUAAC [Ex Arginine B K4 26] | 471 |

Same assay, conditions: Eterna round: R107; input ligand: none

| Sequence | apparent KD of K4 kissing-loop reporter [nM] |
| --- | --- |
| AGCAGGAGUGAUGUUCCUGUGGCAUAAGUUCGAGGACCGGUACGGCCGCCACUCGUAACAUUAAUCCGUCCUUGAUCAGAUAAGA [theeternabot_sameState_KL_Trp_A_12] | 216 |
| AGGCACGAGCAAGGAUAUCGAGUAGAGUGAUGUUCUGCCUGGGUUGGCUCGGAAGAGCCUUCUCAGCGAGAAGGUGCUCGUGCCU [#2 Same State - FMN A Attempt #19 (HarryS)] | 747 |
| GCAGUGAUGUUGCUGGUGUGCAGUGGUAGUCGAGGACCGGUACGGCCGCCACUCGGUGAGAACCUGCUAAUACAUCGAUAAGUGA [XVIII] | 738 |
| AAGAGUUGACGAAAAGUCAACUCACGAGAAGGAGCGCACGAAAGUGCAGGUAGGUCGCUCAGUCCAGUGAUGUUGGAACAUAAAA [#OpenEnded 7] | 96.1 |
| UGAUACCAGACUGAUACCAGCUAGUGAUGUUAGCUGAAACAGGAACAGGCAAAGCCUGCUAGCCCUUGGCAGCAGUCUGGUAUCU [TheoBX 11 #SwitchBubble #StaticStem] | 96.9 |
| AGUUCUUGCCGAAGGAGCGAGGCAGAGUGAUGUUCUGCACGAGGUCGAAAGACCUCGCUGCCUCAGGUAGGUCGCGGCAUGAACA [Omei KL Arginine B Exc A v2] | 1130 |
| GCUCGGGAGUGAUGUUCCAAGUGGUGUUAACGAGGACCGGUACGGCCGCCACUCGAUACGGCCGGACCGUAGGAUAAACUGGAGC [Same State - Tryptophan A (Freestyle 12)] | 125 |
| UUAUACUCAUGUAAAGAACUAGUAACCGAAGGAGCGACAUAAAAGUCAGGUAGGUCGCGGAUUUCUCAGUGAUGUUGAGAGCAUU [JR_SSArginiA_Sub012] | 121 |
| AUCGUUGCCAUUAGGACAUACGGUCCUGAACGAGGACCGGUACGGCCGCCACUCGAGCACACGAGUGAUGUUCGUGGGCAACGAU [Tryp A SS t1] | 137 |
| AUACGUUUAAGUGAUACCAGACAUGUGAGUGAUGUUUACAUAUAUAUUUAAUAUUUAGCUGUCCCUUGGCAGCACAGUUUAUUUA [JR_ExcTheophyB_Sub001] | 441 |
| UUUAUGAUGUCGGCCGCCACUGGAUUAAUAUGUGUGUAAUCUAGUUCUGAGUGAUGUUUAGAGUCCAGGACCGGGACAUUAGUUA [#12 K4 Tryptophan B Exclusion] | 652 |
| GGAUAUGUAACAGAUACCAGCCGACGACAGUCACUGUGUCAUGUAGUGAUGUUACAAUCUGGCCCUUGGCAGCUGUCUCUGGUUU [theeternabot_exclusion_KL_Theo_B_27] | 278 |
| UGGACCUGACUCGAUAAGAGUCAAUGAGAUACCAGUGACGAAAGUCACCCUUGGCAGCUCAACUGCCAGUGAUGUUGGUGGUCCU [#SwitchBubble 2 #StaticStem] | 769 |
| GAGCCAACCGUCGAUACCAGCCGCACGUCAUUCACUCAAUGCUGAGGAGCCAGUGAUGUUGGCCCUUGGCAGCGAAGCAACGAUC [theeternabot_exclusion_KL_Theo_B_43] | 93.5 |
| AUGUAUGAAUUAGGAUAUCGUGAUCCAUGCAUAUAUAUGAUAAAUGGAUAUGUCGUAGUGAUGUUACGAGAAGGAGUGUGGAGUA [KL-XFMN-B1] | 64.3 |
| UGACUACAAAAGGAAUAAUCCUAGUGAUGUUAGGAUAUGCUGAUAAGCAGAAGGAACGGAGAUCGAAAGAUCUCAUAUGUAGUCU [whbob_Ex_FMNA__2th192] | 82.8 |
